Results: patent publication US7304034

Columns and labels:
[1] = target: cell surface binding sites for HMGB1 on RAW 264.7 cells; assay: cell-based or functional assay
[2] = target: cell surface binding sites for HMGB1 on RAW 264.7 cells; assay: 125I-HMGB1 cell surface binding to RAW 264.7 cells, 2 hours at 4 C, no competitor
[3] = target: RAGE on RAW 264.7 cells (mouse (murine RAW 264.7 cells)) (UniProt Q62151); assay: cell-based or functional assay
Chain of RAGE on RAW 264.7 cells (mouse (murine RAW 264.7 cells)) (Q62151 23-402): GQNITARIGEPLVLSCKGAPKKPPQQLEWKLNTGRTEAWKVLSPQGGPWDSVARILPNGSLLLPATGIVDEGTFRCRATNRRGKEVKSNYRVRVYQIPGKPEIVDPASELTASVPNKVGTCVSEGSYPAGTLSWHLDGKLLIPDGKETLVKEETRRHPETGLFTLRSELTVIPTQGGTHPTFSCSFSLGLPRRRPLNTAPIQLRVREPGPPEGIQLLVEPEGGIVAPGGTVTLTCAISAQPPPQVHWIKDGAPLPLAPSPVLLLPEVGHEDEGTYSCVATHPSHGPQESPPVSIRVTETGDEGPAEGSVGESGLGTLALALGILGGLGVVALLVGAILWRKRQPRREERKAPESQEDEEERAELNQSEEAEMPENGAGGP

Row | inhibition of HMGB1 (1 µg/ml) induced TNF release from RAW 264.7 cells, apparent EC50 [1] | total counts obtained in the absence of unlabeled HMGB1 proteins (CPM/well) [2] | maximum inhibition of HMG-1 signaling (TNF release from RAW 264.7 cells) by anti-RAGE antibody [3] | Substance
1 | 7.5 µg/mL | – | – | HMGB1 A box (Amino terminus + A Box mutant of human HMGB1) (from UniProt A9RA84 1-85)
2 | – | 2.38e+06 CPM/well | 40% | Recombinant full length human HMGB1 (wild type HMGB1) (from UniProt A9RA84 1-215) (ligand)
